This is an account of results in article PMC12183613, “Identification of novel small molecule inhibitors of ETS transcription factors”.

The data set addresses ETV6 full-length (UniProt P41212 1-452). As to the kind of experiment: pull-down; fragment Fr18 (enhanced binding); Pull-down: 4 C, 30 min, 1 ug poly(dI/dC), 4 mM spermidine; wash in binding buffer 50 mM KCl, 10 mM HEPES pH 7.6, 5 mM MgCl2, 10 mM Tris pH 8, 0.05 mM EDTA, 0.1% Triton X-100, 20% glycerol. SPR: 25 mM HEPES pH 7.5, 100 mM NaCl, 1 mM EDTA, 1 mM beta-mercaptoethanol; NMR same buffer (296 K). The conditions noted are these: protein: ivt; tags: FLAG; only one strand given.

Chain of ETV6 full-length (P41212 whole entry, the tested form may be a part): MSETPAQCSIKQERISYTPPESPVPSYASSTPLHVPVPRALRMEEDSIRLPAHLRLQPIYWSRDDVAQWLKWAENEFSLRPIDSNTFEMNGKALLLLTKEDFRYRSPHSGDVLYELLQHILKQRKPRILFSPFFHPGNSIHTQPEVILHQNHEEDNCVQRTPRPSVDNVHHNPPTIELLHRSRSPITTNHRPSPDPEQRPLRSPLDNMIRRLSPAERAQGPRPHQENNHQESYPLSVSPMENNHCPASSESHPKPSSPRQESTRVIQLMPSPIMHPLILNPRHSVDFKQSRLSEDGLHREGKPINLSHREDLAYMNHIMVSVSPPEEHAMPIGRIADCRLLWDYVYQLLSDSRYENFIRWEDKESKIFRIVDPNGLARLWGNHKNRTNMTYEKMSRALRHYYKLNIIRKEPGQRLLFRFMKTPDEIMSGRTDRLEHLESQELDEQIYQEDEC

B1: 3x consensus ETS oligonucleotide (biotinylated) (dsDNA)
DNA 1: ACCGGAAGTACCGGAAGTACCGGAAGT
DNA 2: ACTTCCGGTACTTCCGGTACTTCCGGT
With B1, the binding result was “binds”.
